US20040072736A1 (Boehringer Ingelheim, published 2004)
Bridges are numbered along the chain shown (N, C = ends).

B1: methyl ester of the bicyclic nonadecapeptide of Example 1 (peptide)
peptide: GLPWGCPSDIPGWNTPWAC-OMe
modifications: disulfide 6-19; lactam N-9
SMILES: CC[C@H](C)[C@@H]1NC(=O)[C@@H]2CC(=O)NCC(=O)N[C@@H](CC(C)C)C(=O)N3CCC[C@H]3C(=O)N[C@@H](Cc3c[nH]c4ccccc34)C(=O)NCC(=O)N[C@@H](CSSC[C@@H](C(=O)OC)NC(=O)[C@H](C)NC(=O)[C@H](Cc3c[nH]c4ccccc34)NC(=O)[C@@H]3CCCN3C(=O)[C@H]([C@@H](C)O)NC(=O)[C@H](CC(N)=O)NC(=O)[C@H](Cc3c[nH]c4ccccc34)NC(=O)CNC(=O)[C@@H]3CCCN3C1=O)C(=O)N1CCC[C@H]1C(=O)N[C@@H](CO)C(=O)N2
B2: bicyclic nonadecapeptide of Example 1 (SEQ ID NO. 5), free acid (R = H) (peptide)
peptide: GLPWGCPSDIPGWNTPWAC-OH
modifications: disulfide 6-19; lactam N-9
SMILES: CC[C@H](C)[C@@H]1NC(=O)[C@@H]2CC(=O)NCC(=O)N[C@@H](CC(C)C)C(=O)N3CCC[C@H]3C(=O)N[C@@H](Cc3c[nH]c4ccccc34)C(=O)NCC(=O)N[C@@H](CSSC[C@@H](C(=O)O)NC(=O)[C@H](C)NC(=O)[C@H](Cc3c[nH]c4ccccc34)NC(=O)[C@@H]3CCCN3C(=O)[C@H]([C@@H](C)O)NC(=O)[C@H](CC(N)=O)NC(=O)[C@H](Cc3c[nH]c4ccccc34)NC(=O)CNC(=O)[C@@H]3CCCN3C1=O)C(=O)N1CCC[C@H]1C(=O)N[C@@H](CO)C(=O)N2

Biological target: T1, human glucagon receptor (human, UniProt P47871 26-477)
T1 construct: whole, on cells; The assay used plasma membranes from stably transfected BHK-21 cells; also called cloned human glucagon receptor
Experiment: competition radioligand binding; displacement of 125I-glucagon from BHK-21 membranes with the human glucagon receptor; filtration
Experimental: Binding of peptides to the glucagon receptor was assayed in a competition binding-assay using a membrane fraction containing the cloned human glucagon receptor and radiolabeled glucagon.
For measuring competition with glucagon binding, 20 μg of the membrane suspension were incubated for 60 minutes in covered microtiter plates (Optiplate, Packard Instruments) with 50.000 cpm 125I-glucagon (Amersham Pharmacia), and one concentration of the test compound in a total volume of 100 μl. The protein-bound radioactivity is separated from unbound ligand by filtration and washing on a Multiscreen-Vakuumfiltrationsystem (Millipore) using GC/B filters (Packard) and measured after addition of 20 μl Microscint 20 in a topcount scintillation counter (Packard). The non-specific binding is defined as radioactivity bound in the presence of 1 μM glucagon (Wherl GmbH).

T1 sequence (P47871 26-477): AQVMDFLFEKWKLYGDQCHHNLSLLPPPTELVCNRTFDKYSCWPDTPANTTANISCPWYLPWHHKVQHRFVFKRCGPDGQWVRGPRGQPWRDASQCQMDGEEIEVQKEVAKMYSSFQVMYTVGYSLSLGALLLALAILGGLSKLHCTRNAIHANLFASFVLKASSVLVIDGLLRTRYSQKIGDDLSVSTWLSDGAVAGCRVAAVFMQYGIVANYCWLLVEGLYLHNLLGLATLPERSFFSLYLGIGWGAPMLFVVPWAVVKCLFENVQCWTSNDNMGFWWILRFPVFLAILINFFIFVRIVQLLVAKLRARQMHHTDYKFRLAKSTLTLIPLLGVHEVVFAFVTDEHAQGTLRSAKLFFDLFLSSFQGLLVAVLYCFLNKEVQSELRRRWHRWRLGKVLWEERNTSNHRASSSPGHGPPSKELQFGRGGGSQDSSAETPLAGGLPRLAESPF

Binder | IC50 [nM]
B1 | 135
B2 | 100
